Assay results as given in patent publication US20110319338A1, “PEPTIDES THAT BIND EUKARYOTIC TRANSLATION INITIATION FACTOR 4E” (The Board of Regents of the University of Texas System, priority 2008, published 2011).
Square brackets hold non-standard residues; d marks the D form. Ends that are not written are not given here.

Key:
[1] = biological target: T1, binding of eIF4E to eIF4G in SKOV3+GnRH-RI cells (Homo sapiens, UniProt P06730); assay: eIF4E immunoprecipitation / eIF4G Western blot of lysates of peptide-treated cells; assay type: cell-based; settings: 10 micromoles per liter, 24 hours
T1 construct: endogenous in cells; host or cells: SKOV3+GnRH-RI cells
T1 sequence (P06730 2-217 limits assumed): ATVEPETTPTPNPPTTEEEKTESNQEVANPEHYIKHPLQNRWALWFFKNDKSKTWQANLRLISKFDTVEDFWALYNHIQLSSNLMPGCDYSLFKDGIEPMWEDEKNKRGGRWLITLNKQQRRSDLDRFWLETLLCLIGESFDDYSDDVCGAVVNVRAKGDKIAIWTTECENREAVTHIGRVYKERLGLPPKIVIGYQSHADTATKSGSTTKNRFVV
Description: FIGS. 8A-8D. Effect of [DLys6] GnRH-4EBP1 peptide in SKOV3 cells stably expressing GnRH-RI. (FIG. 8A) Western blot analysis of GnRH-RI in parental SKOV3 cells and SKOV3 cells transfected with GnRH-RI. In (FIG. 8B), SKOV3+GnRH-RI cells were treated with biotinylated peptides at a final concentration of 10 micromoles per liter or incubated without peptide. At 24 hours after treatment, lysates were prepared from cells. Peptide was pulled-down using streptavidin-agarose. Precipitates and supernatants were analyzed by Western blot using eIF4E antibody. (FIG. 8C) parental SKOV3, SKOV3+GnRH-RI and ES-2 cells were treated with the indicated peptides (10 micromoles per liter) or incubated without peptide. At 24 hours after treatment, lysates were prepared from cells. Immunoprecipitation was performed using eIF4E antibody, and Western blot of precipitates was performed using eIF4G antibody. Western blot of whole cell lysates of treated cells was performed using antibodies to eIF4G, eIF4E and actin. (FIG. 8D) TUNEL-staining of parental SKOV3 and SKOV3+GnRH-RI cells at 3 days following treatment with peptide at a final concentration of 30 micromoles per liter.
Immunoprecipitation (IP) and Western blotting. Biotinylated peptides were incubated with 250 micrograms of cell lysate at a final concentration of 3 micromoles per liter for 6 hours at 4° C. […]

ES-2-GFP cells = assay: Mouse i.p. xenograft model of epithelial ovarian cancer; assay type: in vivo
Description: FIGS. 4A-4C. Anti-tumor activity of [DLys6]GnRH-4EBP1-WT peptide in a xenograft model of EOC. Female nude mice were inoculated i.p. with one million ES-2-GFP cells. At Day 9 after tumor cell inoculation, one group of mice (n=5) was sacrificed (pre-treatment). At Day 9, other groups of mice were administered by i.p. injection with saline (n=11), [DLys6]GnRH (n=11) or [DLys6]GnRH-4EBP1-WT (n=11) at a dose of 3.0 nanomoles per gram body weight Saline or peptide was administered every 2 days thereafter for 11 days (6 doses in total), and mice were sacrificed on Day 20. (FIG. 4A) Visualization under a fluorescence stereoscope of i.p. tumors in pre-treatment mice (at Day 9) including implants on the omentum (ome), and in mice treated with saline, with agonist alone and with [DLys6]GnRH-4EBP1-WT (at Day 20). (FIG. 4B) Hematoxylin eosin-stained sections of tissues of pre-treatment mice (at Day 9) and of saline- and peptide-treated mice (at Day 20). Tumors attached to the omentum extensively involved the pancreas in saline- and agonist-treated mice. Also shown are tumors attached to the broad ligament and mesentery. Bar, 200 micrometers. (FIG. 4C) Quantification of i.p. tumor burden in pre-treatment and treated mice that completed the regimen, expressed as the average percent of area of fluorescence within the abdominal cavity in captured images, and volume of ascites. Median values of tumor burden and ascites volume for each group and statistical significance of differences between groups are indicated.
Animal Studies. Animal studies were approved by the Institutional Animal Care and Use Committee. The ES-2 cell line stably expressing enhanced green fluorescent protein (ES-2-GFP) has been described in previous work (Hara et al., 2007). Four-week-old female nude mice were inoculated i.p. at one site in the lower abdomen with 10^6 ES-2-GFP cells. At Day 9 after tumor cell inoculation, one group of mice (n=5) were killed by CO2 asphyxiation. At Day 9, other groups of mice were administered by i.p. injection with 200 microliters of phosphate-buffered saline (PBS) (n=11), [DLys6]GnRH (n=11) or [DLys6]GnRH-4EBP1-WT peptide (n=11) at a dose of 3.0 nanomoles per gram body weight. Peptides were suspended in PBS and administered at a volume of 200 microliters. PBS or peptide was administered every 2 days thereafter for 11 days (6 doses in total). Mice were sacrificed on Day 20, and ascites harvested. Tumors were visualized under a Leica MZML III fluorescence stereomicroscope equipped with mercury lamp power supply and green fluorescent protein (GFP) filter set. Tumor burden was quantified by measuring areas of fluorescence signals within the abdominal cavity in captured images by using Image Pro Plus 5.0 software (Media Cybernetics, Bethesda, Md.). Slides of paraffin-embedded tissues collected from mice were stained with hematoxylin-eosin. TUNEL-staining of tissue sections was performed using the in situ cell death detection kit (Roche).
To determine the efficacy of [DLys6]GnRH-4EBP1-WT peptide in vivo, a mouse i.p. xenograft model was used that was established from an ES-2 cell line stably expressing GFP (Hara et al., 2007). This model mimics the typical behavior of epithelial ovarian cancer, including i.p. dissemination and ascites formation. This example comprised three treatment groups of mice i) saline, ii) [DLys6]GnRH agonist, and iii) [DLys6]GnRH-4EBP1-WT, where sample size of each group was n=11. The first dose of peptide or saline was administered i.p. to mice at Day 9 after tumor cell inoculation. At Day 9, no ascites had yet formed but tumors had established on the omentum, broad ligament and mesentery which are common sites of ovarian cancer cell attachment (FIGS. 4A,B). A schedule in which peptide was administered every 2 days was chosen, based on the studies of peptide stability in serum (FIG. 6).
Based on studies of other agonist conjugates in xenograft models (19-21), a peptide dose of 3.0 nanomoles per gram body weight was used. […]

[2] = drop-out mice, individual animals

[DLys6]GnRH: GnRH agonist with a D-amino acid substitution at position 6; GnRH-RI-targeting moiety (QHWSY[dK]LRPG; not fully specified (residue 1, C-terminus); ends and bridges not checked)
binding of eIF4E to eIF4G in treated cells [1]: not inhibited | Ascites volume (ES-2-GFP cells; [2]): 8.9 mL | Percent i.p. tumor burden (ES-2-GFP cells; [2]): 40.9% | i.p. tumor burden, percent of the abdominal cavity (mean) (ES-2-GFP cells; mice that completed regimen, Day 20, 3.0 nanomoles per gram body weight i.p. every 2 days, 6 doses): 56.4% | Drop-outs (euthanized prior to completion due to morbidity related to ascites accumulation) (ES-2-GFP cells; mouse, in vivo): 1 | Mice euthanized, day (ES-2-GFP cells; mouse, in vivo): n = 1, day 16 | day of death before completing treatment regimen (ES-2-GFP cells; mouse, in vivo): 17 days | Deaths (died before completing treatment regimen) (ES-2-GFP cells; of 11 mice per group): 2
